# Data from the domain aggregation screens of Martell et al. (2025).
# Test: soluble fraction after stress (log2 fold change); higher = more stays soluble; pooled small domains, quantitative proteomics
# Settings: stress: 50 degC
# Method in brief: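 The stress applied to every library was 50°C. These custom libraries of small protein domains were pooled and measured at high throughput with quantitative proteomics as the read-out. Aggregation propensity is expressed as the base-two logarithm of the fold change in how much of each protein remains soluble. The higher the value, the more of that protein stays in solution.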
row,Sequence,soluble fraction (log2)
1,HMSDDVELLGRLSDREVSVLQYLSQGYSNKQISEQMFISNKTVSTYKARLLLKLNAGSLVDLIEFAKRNTL,-1.4
2,HMSDEINYVIQINGKNRAEAEFGANLDKESIENLALEHERIKELLNGLTVRKIIVVPKKLVNIVA,-0.312
3,HMSDESALLELVKQIIADNPKAVEEIRAGKEKAMGFLIGQAMKASRGSANPQIISRLVREQLG,0.128
4,HMSDFDPTLILDLIKGSGEALTKREIARALGIKGGDKRIELKSHLKSMEAEGVIVKQAGGAYSVP,-0.122
5,HMSDFSNLNLLELNSSELDLLLRRASSQGLTQMDLLKMARSQGLSEADLIKVKGKIDTSESIKR,-0.0148
6,HMSDFSSNLRRLRKRAGLSQDALAEKLSVARQTVSSWERGNSYPDLDMLVRISDALATDPNELLYPN,-0.00275
7,HMSDGDFLQKIAEEILAQFPDKVKEYQKGKKGLIGFFMGELMKRSKGKADPKVATRILEEILSEKNGSS,0.17
8,HMSDGTVYGSDGVIKVNLPQSGMLRIYATDGTTLVNRWQAAGIDTISMPRGLYIVRFDNQVWKVVV,-0.74
9,HMSDHSSLAGKEGVAVTPLRPAGTAEIDGKRMDVVTMGDYIKAGDHIKVVKVEGNRIIVAKN,0.0433
10,HMSDHYEVLGVDRNATDDQIKKAYRRLARELHPDVNDAPESQEKFKLVTHAYEVLSDPDERRKYDMG,0.0925
11,HMSDIYSLFERELGRTLSSYEYEIIGKWIEKGVSEDTIKRALKEAILNGVTNFKYIDKIIYDWSKN,-0.499
12,HMSDLFKYSPYKTLTEEQYKITYQIIERLKTDLSNGIPRISIIDGGAGTGKSILGIFLLKLLVDAQN,0.343
13,HMSDNLSASERKALSHMEGMESVRSSEVADLLGMSQRGAQKLLNRLVDKGLASSFGANRNRRYSVE,0.306
14,HMSDNLTIVRAVYSGLSQRQAAATYHVSRNTVSLLLRHARNRGWLTLEDLAQLDNAAFSKSL,-4.13
15,HMSDPFSPTTTLKNRAKSVLSVDSFEDFKLFIKKMWQEKKEGVYQNPNVETWKDWDNISVKDAKILISLI,-0.474
16,HMSDPHEELMSRIARDLSIPLTRVVAEMNTIISKEFGGHIRPEGAVVILAKRSGVEFSDLLPALRENILK,-1.05
17,HMSDQIQQIAERIAGLRDIAGYSVEELARELGISAEEYKRYESGEVDIPIGFLYKLANKYNVELTAILT,-0.0876
18,HMSDRFLDQEGVALSTLRPSGTVVLDSGEHLDVVTRGEFIEQGERVKVIKAESTWYVVEQIN,-0.268
19,HMSDRLRLGRRIRAARLEQNLSQAALAERLGISASYLNLLEHDRRSLTTVLLLKLAQVLGLELRDLAAG,-1.99
20,HMSDRLRPGDMVVVVGKKKRYPVFSAFDIDFVEAGDVGKVLTVKREEVVVGFPKKGEGTFTPSELNIAH,-0.597
21,HMSDTGQELHDALNMARRTLTILEEQAAGYTALTIPARLVLELEEKRKDVVRLETQIRSAATGTPG,-0.202
22,HMSDTLPRLLWNFQMAKRLDEMNGAEKRRYQLVLIHPQASEKERDYASSFAHQARMLGIEVAIRDS,-0.345
23,HMSDVVFRINANGLNVSGLANGERVSVYDTTGKLVTTAVSTQDNGTLNLPLKQSGGIYIARTQSGVSFKFT,-0.411

row,Sequence,soluble fraction (log2)
1,HMSDYKSYLQELVQTDKKSLSYNVVKETGPAHDKTFEVEVEVDGIIYAHGVGKSKKEAEQNAAKNAIMISA,0.149
2,HMSDYLGSLSHEEKMIFNHFDEDSSTIENMAKKTELKPELISQIFLNLELRGFLRQTEGGLYEKI,-0.000348
3,HMSDYYEVLGVTRQADAEEIKRAYRRKARQLHPDVAGPGHEEEFKEVTVAYEVLSDPEKRQAYDLGGQDAL,0.179
4,HMSEDAVKFRAAVEVENGLAQRNLNKNQAALILGVDRSYFTYIISGKKTPSPDMAKRIGLLLGFDWRVFYA,-2.03
5,HMSEEIKVPNFVGSTFEKAQALAQETGLEIARGEDVYSPDQEEGKITSQNPTADSVVSPGKLITVYVSKG,0.00159
6,HMSEIKDRLREARRNKGLSQAGLSKLLGVSQASIAAIESGRNKRPTNLVSIAKALDVSPYWLETGK,-0.124
7,HMSEITQTLSMIGKEVTLEIPDEKDKTKTTEVKGIVTEASFKDGTGKVKVNGEYYSIAYITSIRDT,0.335
8,HMSEIVEEQNTKLKQAVSKLSKRQQEVLYLKFEEGLDYEQISKIMDLKYQSVRNLVSTAIIKIKEH,-2.16
9,HMSEKELTDLIERIKERRLKLEMSYQDLSDATGISKSTLQRYETGYIKKVPINQIEILAKALHTTPSYLMG,-0.238
10,HMSEKIDINNSNELELKQLPLTNEQIKSLIEFRRLHGEIQNIYELKNIDFFNIEKVHELKAHIEIKKII,-0.427
11,HMSELADDPVYTALEKAADKAGLQLTVRILNDLADAVLKRGKKKLTAAQAGKVIARAESELAKSRID,-0.0759
12,HMSELDASYLGQRVRYVSGFTETDPSEGLVEFRGSNWRARAEHPPLDHSGHWVIVKVESNTLWVEEKSN,-0.22
13,HMSENEIDELRRRFAREAMALMERKGEEVSRTRLAAELSVARARIDAVFPEESDLLEAVTAEWFA,-0.562
14,HMSENEVQAKVKEIVDRYAGDKSALIAILQDVQDEYRYLPKEALVSIQQQMNIPLSRVYEVATFYDAFS,-0.424
15,HMSEPIYTQLKEILTQKIVNGEFPPGARLPSEYELTELYHISRSTVRLALKELEASGMIVRRRGKGTFVSS,-1.76
16,HMSEPRYRQLATILAQEIRSNHSAGDQLPSEQALAKRFEVNRHTVRRAVDELVAAGMVTRHQGWGTQVV,-0.0244
17,HMSEQGVITAKFASIVGNQNIQLVMFPDSVYLKGQVSSEEEKKRAETVASSLIQDRKIVNLIEFE,-0.0169
18,HMSEQIALQFAKAKQHHTGIALKGIEALELRYKGYTGKEIAALYHTSPKSVFSWISRAKQKLRQN,-0.375
19,HMSEQLHALIDRLDDIPDDELKKNWPGTLRDLVDVISAELHRQGIEPAQAGMLARKVAAAQAGYMG,-0.344
20,HMSEQLKQIAERIKELRNIAGLGEEELAAKLDIPVDTYREYESGNVDIPVSFLYKISGMFNVELTAIL,0.0417
21,HMSEQLVGTVGHITVGTARTASPAEAKFLDAFEQPHYLLVEPIEPKDIFQQGDKVVLVKKQHHSWLATRYI,-0.267
22,HMSEQTLEDVRRLIEHLPESQKEVVKMRYYQDLSFKEIADLKGISINTALGRMHYAINNMRKMAKEYGL,-1.54
23,HMSEQVQLQAQVEDDLIGKRLDQVVAQLFPDYSRSRLQGWIKDGSLTVDGESRRPRDKMMGGEVVRVEATL,0.0984

row,Sequence,soluble fraction (log2)
1,HMSEQVTMIDVEGKTETEAKKALEDLGLKVEITYESADAAAGTVIGQDVKAGSTVSEGSRVTLTVSGQ,0.0626
2,HMSERQTGTVKWFNNAKGFGFITMADRPDDIFVHFRAIQGDGYRSLNEGEEVEFSLVEGPKGLQAEEVTK,0.037
3,HMSESAGKAFDLLFYLAKAGETVSLARLSRETGMNKATALRYLNVLESKGVVERSKLGWTLGLSLFELGSK,-2.05
4,HMSESIFTLYGDEKFEKIRYYLKERGFITLDALARFDFDELLFVPGVSELLISEAKQLFSRYDTSSLAAKE,-0.17
5,HMSETAEFIIQVNGKVRAKLQLPTDISKEEIQKLALADENVQKYLNGEPRKIIFPPNTRLVSIV,-0.0471
6,HMSETEEWTVEGGQAGDRIDRHVAAMLGDDVSRSQVQQWIRAGRVTVNGRAVKPSDTVEEGDRVAVDLPEP,0.0588
7,HMSETVYQYVARQLRDMLGSGEIPVGQQLPTYRELAKRFQVSLSVIQRAMRQLKAEAVVSIAHGQGVKAVR,-0.42
8,HMSEVPVLVAKTDIKELELIDDRKVTLINVPQKFKMPGSFNSPEEVYNTIAAVPIKEGEQITKPRVTWP,0.134
9,HMSEVSEILTRARFFAGVKTDAELSTLLKIPYGTLIGWKTRKNIPESRIAQMALILGIRRDTLIPA,-1.71
10,HMSEYIFGKNVVKEAFNNPSRIEEIYVLDKNMEFVSLAKKYHIKYTVITSSEMNKMVSGNHQGVVALVK,-0.277
11,HMSFDENEALRKALDVFWEKGYDGTSLSDLTEAMGINKPSLYATFGNKDQLFLKAIEMYENR,-0.992
12,HMSFDTFKKVFSNLVEKSGYSDAEIARRLGVNRSTISRWKSGEQSPPLPKVKEIANFFGVSPMVFVD,0.0554
13,HMSFFNGNQMKILRKKLQLNQEEMGEKLGIKKSYVSQLENNRKEITEEIDQILQELEQEYQDKM,-0.323
14,HMSFGESLKKLSIALNSIRKLATTDAGKKDPKVADLLGQIRDTFNSYRTHLRKNYPDLYSGIKNQL,-0.62
15,HMSFGKKLRSLRQEKKLSQVELSKKLNVTSQALSQYELGKRIPDAEMIIRIADFFDVSVDYLLDRT,0.215
16,HMSFGWESLENKEGVADTDLHPSGWVRIEDSRIFVVSEGDFINKGSKVTVLTVDGNRVVVRELI,-0.522
17,HMSFNISPTKKLILELIMNGTAAVEAIAVKAGISKGMAYNHLRELRSMGYITDEGGYKITDSGRLAV,-0.414
18,HMSFNNHYEILQVQPSADREVIEAAAKALLKKHHPDLGGRNTITSHIVQAKKVLTDTSQRADFDARLRERL,-0.0959
19,HMSFNSQENKSVLWQFLLENNFFIGLSDKKFNKVKDIFEKNIQSISIVNDSISNKNKILIQKMMEELELL,-1.88
20,HMSFPDTYFKGNKVIGLSYNDLKKFLNNAGYSKFDEEVEEWGEKRVSIEDDMVDFYLEDDKVVSI,-0.233
21,HMSFPFLMPNLEGLQLDQVRVILEENGLEIGQENYQPDSKFGPGTIINHQPSVDTVVQTGQKVNLQISGTD,0.112
22,HMSFSSLSNDILSEIQKDNNITYDELSEKLQKDRATIYRNMKKLVENGLLKRVGGRKSGHWEIIE,0.189
